Data set [1] concerns the target recombinant Drosophila cathepsin B (Drosophila). Kind of data set: enzyme inhibition assay.
The target in data set [2] is Drosophila cathepsin L purified from fly head extracts (Drosophila melanogaster (endogenous in fly heads)). The experiment in a line: enzyme inhibition assay.
Data set [3] concerns Cc1cc(=O)oc2cc(NC(=O)[C@H](CCCNC(=N)N)NC(=O)[C@H](Cc3ccccc3)NC(=O)OCc3ccccc3)ccc12. The experiment in a line: purified protein. The following applies: 100 mM sodium acetate pH 5.0, 1 mM EDTA, 2 mM DTT, no crammer added.

With crammer Y20A (natural protein), the inhibition constant (Ki) (commonly a measure of affinity in units of concentration, obtained from inhibition or displacement) in data set [1] came to 5400 nM.
Still for that read-out and setting: next, crammer Y12A (natural protein): 18900 nM.
The same measure, in the same setting: for crammer F16A (natural protein) the value was 2260 nM.
Regarding “Drosophila melanogaster crammer, recombinant wild type (monomer) (natural protein)”, the figures for the Ki in data set [2] and in data set [1] were 1.36 nM and 790 nM, respectively.
In the case of crammer C72S (natural protein), in data set [1], the inhibition constant Ki is 1870 nM.
With “Drosophila cathepsin L (Drosophila melanogaster)”, the Km (as a rule, the concentration of substrate that gives half-maximal velocity) in data set [3] is 3.85 µM.

The values are drawn from article PMC3286859.
